Source: the nanobody polyreactivity screen of Harvey et al. (2022)

Assay: yeast display, Sf9 membrane polyspecificity reagent, FACS + sequencing; frameworks hold sequencing errors
Outline: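 Genes from sorted yeast were amplified by colony PCR, read by MiSeq 2 × 250 sequencing and filtered on CDR length. These cells carried a synthetic nanobody library in Saccharomyces cerevisiae BJ5465 and were sorted by FACS into low and high (top ~1%) gates on anti-HA and streptavidin fluorescence. Polyreactivity is labelled according to the gate of origin.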

Row | Sequence | polyreactivity (PSR sort gate)
1 | QVQLVESGGGLVQAGGSLRLSCAASGRIFYPYSMGWYRQAPGKERELVAAIRRSGVDTYYADSVKGRFTISRDNAKNTVYLQMNSLKPEDTAVYYCAADPYWFFPHYDSWGQGTQVTVSS | low polyreactivity
2 | QVQLVESGGGLVQAGGSLRLSCAASGRIFYPYTMGWYRQAPGKERELVAAISSGSRTNYADSVKGRFTISRDNAKNTVYLQMNSLKPEDTAVYYCAAAAYSYKRVYQTFTFGYWGQGTQVTVSS | high polyreactivity
3 | QVQLVESGGGLVQAGGSLRLSCAASGRIFYPYVMGWYRQAPGKERELVAAISDSTGSTYYADSVKGRFTISRDNAKNTVYLQMNSLKPEDTAVYYCAAGWFYATYWRFYYWGQGTLVTVSS | low polyreactivity
4 | QVQLVESGGGLVQAGGSLRLSCAASGRIFYQNAMGWSRPAPGKERELVAGITRGGSTYYADSVKGRFTISRDNAKNTVYLQMNSLKPEDTAVYYCAVAFWRTKWYDYWGQGTQVTVSS | low polyreactivity
5 | QVQLVESGGGLVQAGGSLRLSCAASGRIFYQNAMGWYRPAPGKERELVADISSGGSTYYADSVKGRFTISRDNAKNTVYLQMNSVKPEDTAVYYCHTPSGPGTVGSYRRKWYGYWGQGTQVTVSS | low polyreactivity
6 | QVQLVESGGGLVQAGGSLRLSCAASGRIFYQYAMGWYRQAPGKEREFVAAISISGTSTYADSVKGRFTISRDNAKNTVYLQMNSLIPEDTAFYYCNVGPRAGWYRSNYDYWGQGTQVTVSS | low polyreactivity
7 | QVQLVESGGGLVQAGGSLRLSCAASGRIFYQYVMGWYRQAPGKDRELVAAISRRGGSTYYADSVKGRFTISRDNAKNTVYLQMNSLKPEDTAVYYCAARRRYRRHRYDYWGQGTQVTVSS | high polyreactivity
8 | QVQLVESGGGLVQAGGSLRLSCAASGRIFYRNAMGWYRQAPAKERELVAAISWSGGRTYYADSVKGRFTISRDNAKNTVYLQMNSLKPEDTAVYYCNARTGYYTGQYDYWGQGTQVTVSS | high polyreactivity
9 | QVQLVESGGGLVQAGGSLRLSCAASGRIFYRNAMGWYRQAPGKEREFVAAISSGGSTYYADSVKGRFTISRDNAKNTVYLQMNSLKPEDTAVYYCATRSPERRVYYTYSGLFDYWGQGTQVTVSS | high polyreactivity
10 | QVQLVESGGGLVQAGGSLRLSCAASGRIFYRNVMGWYRQAPGKERELVAAISYRGGSTSYADSVKGRFTISRDNAKNTVYLQMYSLKPEDTAVYYCNAGRIRPAYSDREYWGQGTQVTVSS | low polyreactivity
11 | QVQLVESGGGLVQAGGSLRLSCAASGRIFYRYALGWYRQAPGKERELVAVITSSGGRTYYADSVKGRFTISRDNAKNTVYLQMNSLKPEDTAVYYCAATPVGSHYGNYYWGQGTQVTVSS | high polyreactivity
12 | QVQLVESGGGLVQAGGSLRLSCAASGRIFYRYAMGWSRPAHGKERELVASISGSGGRTYYADSVKGRFTISRDNAKNTVYLQMNSLKPEDTAVSYCAARIRPSYDWGQGTQVTVSS | high polyreactivity
13 | QVQLVESGGGLVQAGGSLRLSCAASGRIFYRYAMGWYRQAPGKERELVAAISSGGSTYADSVKGRFTISRDNAKNTVYLQMNSLKPEDTAVYFCAARLYTYPKGKYWGQGTQVTVSS | high polyreactivity
14 | QVQLVESGGGLVQAGGSLRLSCAASGRIFYRYAMGWYRQAPGKERELVATISSGGSTNYADSVKGRFTISRDNAKNTVYLQMNSLKPEDTAVYYCARQSLRYSYVSRDYWGLGTQVTVSS | low polyreactivity
15 | QVQLVESGGGLVQAGGSLRLSCAASGRIFYRYAMGWYRQAPGKERELVATITNGGSTNYADSVKGRFTISRDNAMITVYLQMNSLKPEDTAVYYCAASRSRYSVNCYNYWGQGTQVTLSS | high polyreactivity
16 | QVQLVESGGGLVQAGGSLRLSCAASGRIFYSNDMGWYRQAPGKERELVAGINYDGGSTYYADSVKGRFTISRDNPKNTVYLQINSLKPEDTAVNYCNVRQVGWFNTPGDYWGQGTQVTVSS | low polyreactivity
17 | QVQLVESGGGLVQAGGSLRLSCAASGRIFYSYAMGWYRQAPGKERELVAAISFSVGSTYYADSVKGRFTISRDNAKNTVYLQMNSLKPEDTAVYYCATGWYYTSTTYRSSDFDYWGQGTQVTVSS | low polyreactivity
18 | QVQLVESGGGLVQAGGSLRLSCAASGRIFYSYAMGWYRQAPGKERELVAAITESGGSTNYADSVKGRFTISRDNAKNTVYLQMNSLKPEDTEVYYCNARYKLTFNLYNYWGQGTQETVSS | low polyreactivity
19 | QVQLVESGGGLVQAGGSLRLSCAASGRIFYSYAMGWYRQAPGKERELVATISSAGSTYYADSVKGRFTISRDNAKNTVYLQMNSLKPEDTAVYYCAARRPRRYGFWGQGTQVTVSS | high polyreactivity
20 | QVQLVESGGGLVQAGGSLRLSCAASGRIFYSYARGWYRQAPGKERELVAAITESGGSTNYADSVKGRFTISRDNAKNSVYLQMNSLKPEDSAVYYCNARYKLTFNLYNYRGQGTQVTVSS | low polyreactivity
21 | QVQLVESGGGLVQAGGSLRLSCAASGRIFYSYGMGWYRQAPGKERELVATISIGGSTNYADSVKGRFTISRDNAKNTVYLQMNSLKPEDTAVYYCAARGGTLYSTRSYGYWGQGTQVTVSS | high polyreactivity
22 | QVQLVESGGGLVQAGGSLRLSCAASGRIFYSYTMGWYRQAPGKEREMVAGINRSVGSTYYADSVKGRFTISRDNAKNTVYLQMNSLKPEDTAVYYCAAGSRRRSYYTFSSVHGHYYWGQGTQVTVSS | high polyreactivity

Row | Sequence | polyreactivity (PSR sort gate)
23 | QVQLVESGGGLVQAGGSLRLSCAASGRIFYTYAKGLSRQAPRKERELVATISNSGGSTYYADSVKGRFTISRDNAKNTVYLQMNSLKPEDTAVYSCAKDERAAPSASYAYYYWGQGTLVTVSS | low polyreactivity
24 | QVQLVESGGGLVQAGGSLRLSCAASGRIFYVYAMGRYRQAPGKERELVAAINWSGDSTYYADSVKGRFTISRDNAKNTVYLQLNSLKPEDTAVYYCARARPTGYNYWGQGTQVTVSS | high polyreactivity
25 | QVQLVESGGGLVQAGGSLRLSCAASGRIFYVYAMGWYRQAPGKERELVADITRDGNTNYADSVKGRFTISRDNAKNTVYLQMNSLKPEDTAVYYCAAGGYPGTTYYGYDYWGQGTQVTVSS | low polyreactivity
26 | QVQLVESGGGLVQAGGSLRLSCAASGRIFYVYGMGWYRQAPGKERELVAAISKRGDNTYYADSVKGRFTISRDNAKNTVYLQMNSLKPEDTAVYYCAAKYNYSPRAGFNFWGQGTQVTVSS | high polyreactivity
27 | QVQLVESGGGLVQAGGSLRLSCAASGRIFYWNTMGWYRQAPGKEREFVAAILSRGDTTYYADSVKGRFTISRDNAKNTVYLQMNSLKPEDTAVYYCAARPVRYHYVPSMYYWGQGTQVTVSS | high polyreactivity
28 | QVQLVESGGGLVQAGGSLRLSCAASGRIFYWYAMGWYRQAPGKERELVATINSGGSTTYADSVKARFTISRDNAKNTVYLQMNSLKPEDTAVYYCARQRTVKKYYNWGQGTQVTVSS | high polyreactivity
29 | QVQLVESGGGLVQAGGSLRLSCAASGRIFYWYVMGWYRQAPGKERELVASISWSGGSTYYADSVKGRFTISRDNAKNTVYLQMNSLKPEDTAVYYCNAGSVYTVSLPGHPYDYWGQGTQVTVSS | low polyreactivity
30 | QVQLVESGGGLVQAGGSLRLSCAASGRIFYWYVMGWYRQAPGKERELVATIRYSGGNTYYADSVKGRFTISRDNAKNTVYLQMNSLKPEETEVYYCAAGSLYWGRSPTRGGQGGYWGQGTQVTVSS | high polyreactivity
31 | QVQLVESGGGLVQAGGSLRLSCAASGRIFYYNAMGWYREAPGKERELVAVITRSGGRTFYADSVKGRFTISRDNAKNTVYLQMNSLKPEDTAVYYCAARYRYYPVTTRGYYWGQGTQVTVSS | high polyreactivity
32 | QVQLVESGGGLVQAGGSLRLSCAASGRIFYYNAMGWYRPAPGKERELVAAITGDGTTDYADSVKGRFTISRDNAKNTVYLQMNSLKPEDTAVYYCNAPFRYVPPEGSGPYDYWGQGTQVTVSS | low polyreactivity
33 | QVQLVESGGGLVQAGGSLRLSCAASGRIFYYNAMGWYRQAHGKERELVAAISFSDGSTYYADSVKGRFTISRDNAKNTVYLQMNSLKPEDTAVYYCAADIGYDYDYWGQGTQVTVSS | low polyreactivity
34 | QVQLVESGGGLVQAGGSLRLSCAASGRIFYYNAMGWYRQAPGKERELVAAISGSGGRTYYADSVKGRFTISRDNAKNTVYLQMNSLKPEDTAVYYCAAAGYDSNGRYWGQGTQVTVSS | high polyreactivity
35 | QVQLVESGGGLVQAGGSLRLSCAASGRIFYYNAMGWYRQAPGKERELVAAITSGGSTNYADSVKGRFTISPDNAKNTVYLQMNSLKPEDTAVYYCNARRYGSPRSEVHYDYCGQGTQVTVSS | low polyreactivity
36 | QVQLVESGGGLVQAGGSLRLSCAASGRIFYYNAMGWYRQAPGKERELVAAITSVGSTNYADSVKGSFTISRDNAKNTVYLQMNSLKPEDTAVYYCARASAWYVTLVGKYTKYDYWGQGTQVTVSS | low polyreactivity
37 | QVQLVESGGGLVQAGGSLRLSCAASGRIFYYNTMGWYRQAPGKERELVAAITRSGGSTYYADSVKGRFTISRDNAKNTVYLQMNSLKPEDTAVYYCAARSTHPGSVGYWGQGTQVTVSS | high polyreactivity
38 | QVQLVESGGGLVQAGGSLRLSCAASGRIFYYNTMGWYRQAPGKESELVAAISWSGGSTFYADSVKGRFTISRDNAKNTVYLQMNSLKPEDTAVYYCARYKLRSGRSGDHDDYWGQGTQVTVSS | high polyreactivity
39 | QVQLVESGGGLVQAGGSLRLSCAASGRIFYYYAMGWYRQAPGKERELVAAISWSGGSTYYADSVKGRFTISRDNAKNTVYLQMNSLKPEDTAVYYCAAESRKYREYYFWGQGTQVTVSS | high polyreactivity
40 | QVQLVESGGGLVQAGGSLRLSCAASGRIFYYYAMGWYRQAPGKERELVAAITRRGGSTYYADSVKGRFTISRDNAKNTVYLQMNSLKPEDTAVYYCAKPDRTGWLDGDYWGQGTQVTVSS | low polyreactivity
41 | QVQLVESGGGLVQAGGSLRLSCAASGRIFYYYAMRWYRQAPGKERELVATISGIGGSTYYADSVKGRFTISRDNAKNTVYLHMNSLKPEDTAVYYCNADYPTSYPLLKSGFDYWGQGTQVTVSS | low polyreactivity
42 | QVQLVESGGGLVQAGGSLRLSCAASGRIFYYYDMGWYRQAPGKERELVATMSGIGGSTYYADSVKGLFTISRDHAKNTVYLQMNSLKPEDTAVYYCNADYPTSYPLFKTGFDYWGQGTQVTVSS | low polyreactivity
43 | QVQLVESGGGLVQAGGSLRLSCAASGRIFYYYTMGWYRQAPGKERELVAALTRSGSSTYADSVKGRFTISRDNAKNTVYLQMNSLKAEVTAVYYCAADYIRRYDYWGQGTQVTVSS | low polyreactivity
